Reference: the supplement of paper PMC9732359
± gives the uncertainty stated by the source.

Assay: protein stability index of a GFP-peptide fusion (yeast GPS) (PSI 1-4); higher = more stable; sorted into four equal gates, so the index is relative within each strain
Summary of the method: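 Tiled 17-residue peptides from yeast proteins were fused downstream of GFP on a plasmid that also expresses Cherry, and the pooled library was carried in yeast. Mid-log cultures grown in leucine-free medium were sorted into four equal gates by GFP/Cherry fluorescence ratio. Plasmids from each gate were PCR-amplified and Illumina-sequenced, and reads were assigned to strains by barcodes. Each peptide's protein stability index is the sum, over gates, of the gate's read frequency multiplied by its gate number.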

Sequence	protein stability index (doa10∆)	protein stability index (pdr5∆)	protein stability index (san1∆)	protein stability index (ubr1∆)
GILLETISVPQIRDVME [RRP6]	2.74 ± 0.072	2.56 ± 0.06	2.89 ± 0.056	2.64 ± 0.067
QPEVAVKAAINFSNVTD [YIL149C/MLP2]	2.21 ± 0.064	2.44 ± 0.055	2.2 ± 0.071	2.55 ± 0.048
SSVFLPSRKDCMEVASA [BRR2]	2.73 ± 0.063	3.4 ± 0.077	3.33 ± 0.066	3.19 ± 0.059
IDVNLNFARQLLFNNDF [RRP40]	2.93 ± 0.064	1.56 ± 0.057	1.36 ± 0.13	1.82 ± 0.05
STMKENKDLSELVIRLE [YIL149C/MLP2]	3.08 ± 0.08	3.1 ± 0.082	3.16 ± 0.065	3.09 ± 0.069
CLFENDLQRLKPLGLDR [ITC1]	2.92 ± 0.074	3.19 ± 0.11	3.15 ± 0.065	3.09 ± 0.042
DEYLGSHTDQPANVLLV [NNF1]	3.57 ± 0.25			2.92 ± 0.13
NKVVVNLNDAGLALQLF [RPN2]	2.28 ± 0.084	2.19 ± 0.12	2.68 ± 0.12	1.85 ± 0.091
ACHVEVPYVLMGQIATF [COB]	2.08 ± 0.092	1.98 ± 0.088	1.87 ± 0.12	1.94 ± 0.066
DLAERASELDESKDSIQ [SMC3]	3.06 ± 0.093	3.1 ± 0.09	2.83 ± 0.17	3.17 ± 0.06
NSESTTQGGNVNLDNTA [RPT5]	3.53 ± 0.11	3.41 ± 0.12	3.27 ± 0.09	3.11 ± 0.087
GSFKVVKGTNISEKDLV [RPO31]	2.6 ± 0.27	3.36 ± 0.14	3.51 ± 0.044	3.5 ± 0.089
KSSVPGSAELRNSYPAS [RPN3]	2.66 ± 0.089	3.33 ± 0.076	2.73 ± 0.078	3.25 ± 0.095
CILRFLQLPIEDKFLYG [SWI3]	1.85 ± 0.07	1.72 ± 0.085	1.18 ± 0.19	1.18 ± 0.077
TSPGFGVSSPGFSPTSP [RPO21]	2.7 ± 0.077	2.66 ± 0.071	2.5 ± 0.058	2.93 ± 0.043
ENTKDNLVKEKEALQNN [SMC1]	3.51 ± 0.12	3.26 ± 0.13	3.45 ± 0.13	
STNGLGMCQLYFWHKIW [SNU114]		1.24 ± 0.24	2.56 ± 0.21	
NISNNLQKALTVKTNDE [RPN8]	3.02 ± 0.16	3 ± 0.11	2.82 ± 0.14	2.88 ± 0.067
CANCVKERIVRAFLIEE [RPL34B]		3.47 ± 0.26		
KGNFRTKPFENVEKYPT [SNU114]		3 ± 0.24	3.16 ± 0.25	
VTQNVLGLEYIIRLLPI [SRB8]	1.55 ± 0.12	1.68 ± 0.14	1.39 ± 0.25	1.63 ± 0.21
FAKEHNATVNLAMEAIL [YJR042W/NUP85]	2.93 ± 0.094	2.66 ± 0.1	2.71 ± 0.098	2.63 ± 0.092
AVDKVISGYKKFSSTSR [RPT1]	3.46 ± 0.27	3.87 ± 0.23	3.21 ± 0.16	3.74 ± 0.14
KLVLNISVGESGDRLTR [RPL11A]			2.6 ± 0.2	1.08 ± 0.14
MSQYQSTMKENKDLSEL [YIL149C/MLP2]	3 ± 0.16	3.12 ± 0.11		2.76 ± 0.092
EDFQKRQQKLLEDQQRQ [SWI1]	3.21 ± 0.11	3.16 ± 0.051	3.14 ± 0.057	3.19 ± 0.047

Sequence	protein stability index (doa10∆)	protein stability index (pdr5∆)	protein stability index (san1∆)	protein stability index (ubr1∆)
LSPPEFLFHAISGREGL [RPO31]	2.17 ± 0.047	1.79 ± 0.053	1.48 ± 0.14	1.63 ± 0.046
DDDLFETLVLSYFSPIN [YCG1]	2.23 ± 0.069	1.44 ± 0.05	1.36 ± 0.093	1.35 ± 0.032
VMGTPLTNMMSPMGNAY [PGD1]	2.03 ± 0.14	2.24 ± 0.21	1.62 ± 0.18	
SRRTVNKEMETQRIMTN [YLR018C/POM34]	3.51 ± 0.12	3.15 ± 0.29	3.22 ± 0.26	3.1 ± 0.2
SDNVYLKLLVKLYTFLA [RPL18A]	2.12 ± 0.098	1.99 ± 0.099	1.67 ± 0.084	2.43 ± 0.084
LVTAGVAAAGITASTLL [CYT1]	1.57 ± 0.058	1.76 ± 0.066	1.62 ± 0.098	1.67 ± 0.044
MAQENSMERKVQGAAPW [MCD1]	3.35 ± 0.26	2.92 ± 0.11		
IQKQIETIQADLNHVTE [SMC2]	2.96 ± 0.047	3.16 ± 0.053	2.96 ± 0.037	2.87 ± 0.039
LILIPGETMWVPIKSSK [RPN13]	2.17 ± 0.083	2.51 ± 0.068	2.61 ± 0.057	1.81 ± 0.055
DPLVSLMMVEKVPDSTY [RPT6]	2.59 ± 0.087	2.93 ± 0.064	2.49 ± 0.069	2.89 ± 0.063
WLKEYEDETLRRIKEAE [YIL149C/MLP2]	2.83 ± 0.11	3.19 ± 0.12	3.17 ± 0.069	3.44 ± 0.11
SADDDVNNGNIPSQRGT [SIR3]	2.97 ± 0.24	3.01 ± 0.1	2.67 ± 0.11	2.86 ± 0.11
SEDHSFRKVKLRVDEVQ [RPS1B]	3.05 ± 0.094	2.96 ± 0.15	2.66 ± 0.091	3.1 ± 0.067
SDSNANAAVAGVANTDT [SWI3]	3.28 ± 0.063	3.33 ± 0.07	3.22 ± 0.044	2.91 ± 0.061
PSVGVKTMKTFVIHIQE [RPB5]	2.83 ± 0.087	2.82 ± 0.13	2.47 ± 0.13	2.76 ± 0.1
SEEINQYVTQIEQEKQE [PRE6]	2.68 ± 0.075	1.76 ± 0.063	2.59 ± 0.085	2.62 ± 0.086
QTRAKLLDNEIRIFRSE [RPT5]	3.15 ± 0.12	3.37 ± 0.093	3.22 ± 0.051	2.95 ± 0.056
GKISKPRFLNKQERSKQ [PRP28]	1.9 ± 0.088	2.46 ± 0.13	3.33 ± 0.11	2.13 ± 0.088
STFREWKNLVLKLSQAF [YJR042W/NUP85]	2.85 ± 0.079	2.37 ± 0.096	2.64 ± 0.068	2.74 ± 0.076
SDRSLSEDLFADGLLQV [BRR2]	3.04 ± 0.28			
ENFLKEVFQLRIFVKEI [GAL11]	1.81 ± 0.073	1.69 ± 0.058	1.95 ± 0.063	1.52 ± 0.057
EVINKEIENATKDIFPL [RPS1A]	3.25 ± 0.29	2.74 ± 0.19	2.9 ± 0.13	3.16 ± 0.082
ISSLFTITTILILGLNT [YML103C/NUP188]	1.51 ± 0.078	1.75 ± 0.094	1.46 ± 0.2	1.75 ± 0.065
MVPKRSTIITKAINQEL [YCS4]	1.39 ± 0.1	1.88 ± 0.062	1.58 ± 0.09	2.24 ± 0.068
PRLEKLINEILLKSNDP [RGR1]	1.68 ± 0.059	2.01 ± 0.045	1.75 ± 0.079	1.86 ± 0.039
ANTGGQDKIELSEEETL [SNF2]	2.62 ± 0.12	2.8 ± 0.25	3.08 ± 0.063	2.94 ± 0.12

Sequence	protein stability index (doa10∆)	protein stability index (pdr5∆)	protein stability index (san1∆)	protein stability index (ubr1∆)
IKELRSKGYPIQFLTIG [FAS1]	1.87 ± 0.11	2.22 ± 0.068	1.43 ± 0.096	1.68 ± 0.071
LKPDLNKITNQGVTCLH [NAS6]	2.36 ± 0.11	2.05 ± 0.052	3.13 ± 0.079	2.38 ± 0.059
YSDENDPSISNNIRQAI [RRP4]	2.53 ± 0.077	2.75 ± 0.066	3 ± 0.065	2.47 ± 0.061
ESINNVVDQLWSEISNE [RPN2]	2.77 ± 0.065	2.94 ± 0.053	2.83 ± 0.096	2.63 ± 0.041
WQQVTALAQQKLLTPQD [GAL11]	2.29 ± 0.058	2.38 ± 0.068	2.18 ± 0.085	2.45 ± 0.06
GVANTDTAGEESQQQDE [SWI3]	3.45 ± 0.1	3.55 ± 0.085	3.33 ± 0.062	3.43 ± 0.086
EFYNEMHRPVHFLQFSE [PRP8]	2.9 ± 0.086	2.51 ± 0.089	2.27 ± 0.067	2.33 ± 0.058
NHVMPLKPVDKLKPMNI [SIN4]	2.84 ± 0.1	2.93 ± 0.083	2.83 ± 0.087	2.94 ± 0.094
ADVLAMAKVEVNLAAIP [RIP1]	1.84 ± 0.12	1.99 ± 0.13	1.82 ± 0.22	2.05 ± 0.077
LPNLGTPDDDEIDVENH [RPN8]	1.53 ± 0.076	1.82 ± 0.083	1.69 ± 0.11	1.42 ± 0.056
NEIIRSLSDEVMRNEIR [SIR4]	2.64 ± 0.058	2.1 ± 0.048	2.52 ± 0.068	2.39 ± 0.049
SKVTVPPSKHSTLTLSD [ESC2]	3.29 ± 0.12	3.09 ± 0.13	2.9 ± 0.071	3.1 ± 0.098
KNAQYHLLVKQGDGLLT [RPN7]	1.96 ± 0.1	1.61 ± 0.079	1.12 ± 0.18	1.22 ± 0.08
GRLNTLVISLAATNETF [IRR1]	1.64 ± 0.088	1.38 ± 0.065	1.1 ± 0.23	1.17 ± 0.06
IRKSETSGRYASYRICM [RPB5]	2.57 ± 0.088	2.89 ± 0.063	2.9 ± 0.072	2.97 ± 0.086
AEKLVPLPICHANSVVA [YML031W/NDC1]	1.68 ± 0.2	1.34 ± 0.091	1.61 ± 0.2	1.42 ± 0.16
IEINEDNSQDDQDRGAA [RRI2]	3.24 ± 0.18	3.28 ± 0.23	3.12 ± 0.12	3.04 ± 0.11
LASSFVNGFLNLGYCND [RPN1]	3.2 ± 0.1	3.33 ± 0.097	3.27 ± 0.049	3.17 ± 0.082
KDLKFPLPHRVQKSTKT [RPL20A]	2.27 ± 0.053	2.68 ± 0.05	2.58 ± 0.052	2.69 ± 0.043
LLKKKDDPSKVRLLCRS [YLR335W/NUP2]	2.12 ± 0.047	1.85 ± 0.063	1.98 ± 0.089	2.61 ± 0.15
EGLCIVAGSKCWAVRAD [RRP45]	2.38 ± 0.073	2.43 ± 0.071	2.53 ± 0.079	2.57 ± 0.07
SKAQQKTAEQVAAERAA [RPL7A]	2.84 ± 0.064	2.88 ± 0.052	2.74 ± 0.054	2.68 ± 0.049
PLILTPPQLANQQQPPQ [SNF11]	1.53 ± 0.066	1.93 ± 0.071	2.04 ± 0.093	2.15 ± 0.069
VPEFFQTANEKHITVRL [SRP14]	3.02 ± 0.1	2.67 ± 0.11	3.01 ± 0.12	2.56 ± 0.1
